# B1: hIgG2.EEE.L368E.Ab1.Ab1/hIgG2.RRR.K409R.Ab2.Ab2 (bispecific antibody, part only; not given: Variable regions and light chains, not shown: another chain or arm of the molecule)
# constant 1: ASTKGPSVFPLAPCSRSTSESTAALGCLVKDYFPEPVTVSWNSGALTSGVHTFPAVLQSSGLYSLSSVVTVPSSNFGTQTYTCNVDHKPSNTKVDKTVERKCEVECPECPAPPVAGPSVFLFPPKPKDTLMISRTPEVTCVVVDVSHEDPEVQFNWYVDGVEVHNAKTKPREEQFNSTFRVVSVLTVVHQDWLNGKEYKCKVSNKGLPSSIEKTISKTKGQPREPQVYTLPPSREEMTKNQVSLTCEVKGFYPSDIAVEWESNGQPENNYKTTPPMLDSDGSFFLYSKLTVDKSRWQQGNVFSCSVMHEALHNHYTQKSLSLSPGK
# constant 2: ASTKGPSVFPLAPCSRSTSESTAALGCLVKDYFPEPVTVSWNSGALTSGVHTFPAVLQSSGLYSLSSVVTVPSSNFGTQTYTCNVDHKPSNTKVDKTVERKCRVRCPRCPAPPVAGPSVFLFPPKPKDTLMISRTPEVTCVVVDVSHEDPEVQFNWYVDGVEVHNAKTKPREEQFNSTFRVVSVLTVVHQDWLNGKEYKCKVSNKGLPSSIEKTISKTKGQPREPQVYTLPPSREEMTKNQVSLTCLVKGFYPSDIAVEWESNGQPENNYKTTPPMLDSDGSFFLYSRLTVDKSRWQQGNVFSCSVMHEALHNHYTQKSLSLSPGK
# Target: human-FcRn (neonatal Fc receptor) (human) (UniProt P55899)
# Chain of UniProt P55899 (P55899 24-297 limits assumed, chain 1 of 2): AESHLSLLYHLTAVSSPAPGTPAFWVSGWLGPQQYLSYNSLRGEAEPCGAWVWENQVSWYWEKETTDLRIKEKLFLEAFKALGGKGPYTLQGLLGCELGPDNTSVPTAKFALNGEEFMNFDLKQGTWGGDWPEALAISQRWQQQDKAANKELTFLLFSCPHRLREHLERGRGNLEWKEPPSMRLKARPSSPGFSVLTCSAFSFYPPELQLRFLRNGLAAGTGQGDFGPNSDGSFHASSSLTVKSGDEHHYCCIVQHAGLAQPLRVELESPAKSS
# Chain of UniProt P55899 (P61769 21-119 limits assumed, chain 2 of 2, further chain): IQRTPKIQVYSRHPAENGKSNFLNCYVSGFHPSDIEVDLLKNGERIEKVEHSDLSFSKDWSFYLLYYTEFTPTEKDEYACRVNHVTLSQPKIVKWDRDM
# Assay: SPR (ProteOn XPR36), IgG amine-coupled on reaction spots, human FcRn injected in kinetic titration, pH 6.0
row,Molecule,Kd [nM]
1,hIgG2ΔA (control) (antibody),983
2,B1,600

# Reference: US20130115208A1
